What was measured:
Human FcRn (human) = Human FcRn (human) (UniProt P55899); test: MST; ligands (HER2, CD16a, FcRn) labelled with RED-NHS; 10 μL labelled ligand mixed with 10 μL gradient mAb; Monolith NT.115, 40% IR-laser power; fit with the Hill equation in Prism
Phe176 CD16a (human) [1] = biological target: Phe176 CD16a (human) (UniProt P08637); test: as above
Val176 CD16a (human) = Val176 CD16a (human) (UniProt P08637); test: as above
Phe176 CD16a (human) [2] = biological target: Phe176 CD16a (human) (UniProt P08637)

Sequence of UniProt P55899 (P55899 24-297): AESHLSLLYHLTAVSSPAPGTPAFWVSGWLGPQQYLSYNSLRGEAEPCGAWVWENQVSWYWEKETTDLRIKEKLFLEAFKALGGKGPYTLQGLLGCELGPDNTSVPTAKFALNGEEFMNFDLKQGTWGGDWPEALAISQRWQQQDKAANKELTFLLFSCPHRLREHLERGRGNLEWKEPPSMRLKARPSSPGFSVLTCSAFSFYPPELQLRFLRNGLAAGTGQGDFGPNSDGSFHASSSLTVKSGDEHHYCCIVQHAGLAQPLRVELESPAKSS

Question: With Pertuzumab^Fuc+SA+ (antibody) as the substance, how does the Kd (Human FcRn (human)) read?
Answer: 860 pM

Question: And the Kd (Phe176 CD16a (human) [1])?
Answer: 1310 pM

Question: What about the Kd (Val176 CD16a (human)) of the same substance?
Answer: 350 pM

Question: What does the source list for Pertuzumab^Fuc+SA− (antibody)?
Answer: Kd (Human FcRn (human)): 830 pM; Kd (Phe176 CD16a (human) [1]): 450 pM

Question: Which Kd (Human FcRn (human)) does the source give for Pertuzumab^Fuc−SA+ (antibody) here?
Answer: 840 pM

Question: What about the Kd (Phe176 CD16a (human) [1]) of the same substance?
Answer: 290 pM

Question: With Pertuzumab^Fuc−SA− (antibody) as the substance, how does the ADCC (LDH release), SK-BR-3 target cells, human PBMCs as effector cells, E/T 50/1; fold against pertuzumab^Fuc+SA+; allotype of the donors' FcγRIIIa not stated (Phe176 CD16a (human) [2]) read?
Answer: 20 fold

Question: And the Kd (Human FcRn (human))?
Answer: 820 pM

Question: What about the Kd (Phe176 CD16a (human) [1]) of the same substance?
Answer: 130 pM

Question: What about the Kd (Val176 CD16a (human)) of the same substance?
Answer: 20 pM
